From US20250243261A1 (CZ BIOHUB SF, published 2025)

Key:
[1] = molecular target: SARS-CoV-2 Beta-variant Spike with two stabilizing proline substitutions (S-2P) (SARS-CoV-2 Beta variant); experiment: BLI, IgG
[2] = molecular target: T1, SARS-CoV-2 Omicron-variant receptor binding domain (RBD) (SARS-CoV-2 Omicron variant); experiment: BLI, IgG
T1 construct: domain: RBD

B1: C143 WT IgG (antibody, V domains shown)
VH: EVQLVESGGGLVQPGGSLRLSCAASGFSVSTKYMTWVRQAPGKGLEWVSVLYSGGSDYYADSVKGRFTISRDNSKNALYLQMNSLRVEDTGVYYCARDSSEVRDHPGHPGRSVGAFDIWGQGTMVTVSS
VL: QSALTQPASVSGSPGQSITISCTGTSNDVGSYTLVSWYQQYPGKAPKLLIFEGTKRSSGISNRFSGSKSGNTASLTISGLQGEDEADYYCCSYAGASTFVFGGGTKLTVL
**Q.** Which results are given for B1?
**A.** Kd [1]: 450 nM; Kd [2]: 600 µM
